Measurements from US20140314667A1, “METHODS OF TREATING EPIDERMAL GROWTH FACTOR DELETION MUTANT VIII RELATED DISORDERS” (AMGEN INC., priority 2011, published 2014).

What was measured:
[1] = biological target: T1, EGFRvIII receptor on NR6 M cells (Homo sapiens, UniProt P00533, DELINS30-297G); assay: Internalization assay (FMAT, glutathione) of B cell culture supernatants; format: cell-based; conditions: for % internalized, (glut+/glut−) × 100 / With glutathione FL1xcount: 37° C. for 30 mins; for With glutathione FL1xcount: 50 mM glutathione; for No glutathione FL1xcount: kept on ice
T1 construct: NR6 M cells stably expressing full length EGFRvIII; expressed in transfected cells; host or cells: NR6 cells (NR6 M)
Experimental: The top 60 native binding B cell culture supernatants were further assayed for their ability to internalize the receptor. NR6 M cells were seeded at 8000 cells/well into 96 well FMAT plates and incubated overnight. Media was removed and 10-15 μl B-Cell culture supernatant in a total volume of 30 μl media, in duplicate was added. Next, 15 μl of secondary antibody (SS Alexa 647 anti-human IgG Fab at 1.5 μg/ml final concentration) was added and the mixture was incubated on ice for 1 hr. An irrelevant B-Cell Culture supernatant was used to see the effect of the culture media. Human anti-EGFRvIII mAb 13.2.1 was used as a positive control starting at 1 μg/ml (final concentration) and negative control was PK 16.3.1 (human anti-KLH IgG2 antibody) at the same concentration. After incubation, the cells were washed with cold PBS, 50 μl media was added to all of the wells, one of the duplicates were incubated at 37° C. for 30 mins while the other duplicate remained on ice. After the incubations media was removed, 100 ul of cold 50 mM glutathione was added to the set incubated at 37° C. and 100 μl of cold media added to the other set, both sets were then left on ice for 1 hr. The cells were then washed with 100 μl cold PBS and then fixed with 1% paraformaldehyde and read in FMAT. The results were expressed as % internalized, calculated as total fluorescence in the presence of glutathione/total fluorescence in the absence of glutathione×100.

[2] = biological target: T2, EGFRvIII receptor in NR6 M cells (Homo sapiens, UniProt P00533, DELINS30-297G); assay: Internalization of EGFRvIII receptor by recombinant mAbs (FACS); format: cell-based; conditions: 0.25 μg/ml antibody, 1 hr
T2 construct: NR6 M cells stably expressing full length EGFRvIII; expressed in transfected cells; host or cells: NR6 cells (NR6 M)
Experimental: XenoMax derived IgG1 recombinant antibodies were expressed, purified and quantitated as described previously. Antibodies were further assayed for their ability to internalize the EGFRvIII receptor in NR6 M cells. […] The cells were washed with cold 10% FCS in PBS and secondary antibody (SS Alexa antihuman IgG Fab) at 3 μg/ml Fab was added and incubated for 7 mins on ice. The cells were washed with cold 10% FCS in PBS once and then resuspended in cold media. Next, two sets of the triplicate were incubated at 37° C. and the remaining set was incubated at 4° C. for 1 hr. After that the cells incubated at 4° C. and one set of the cells incubated at 37° C. were treated with glutathione (as previously mentioned) for 1 hr on ice. Then the cells were washed and resuspended in 100 μl of cold 1% FCS in PBS and analyzed by FACS. The % internalization was calculated from the geometric mean obtained from the FACS analysis [(mean at 37° C. with glutathione−mean at 4° C. with glutathione)/(mean at 37° C. without glutathione−mean at 4 C with glutathione)].

EGFRvIII-peptide-OVA = biological target: T3, EGFRvIII-peptide-OVA (Homo sapiens, UniProt P00533, DELINS30-297G); assay: B-cell culture supernatant ELISA on EGFRvIII-peptide-OVA; format: binding; conditions: for binding with the pep3: XenoMax approach, in words
T3 construct: 207 μg of EGFRvIII PEP3 was reduced; host or cells: synthetic peptide, chemical conjugation
Experimental: B-cells from the above-discussed animals were harvested and cultured. Those secreting EGFRvIII-peptide specific antibodies were isolated as described in Babcook et al., Proc. Natl. Acad. Sci. USA, 93:7843-7848 (1996). ELISA was used to identify primary EGFRvIII-peptide-OVA-specific wells. About 5 million B-cells were cultured from XenoMouse animals in 24596 well plates at 500 or 150 or 50 cells/well, and were screened on EGFRvIII-peptide-OVA to identify the antigen-specific wells.
(§1) 244 of EGFRvIII-peptide-OVA-Elisa positive wells of OD >0.5 were screened again on EGFRvIII-peptide-OVA and on OVA to confirm that they were EGFRvIII-peptide specific.

[3] = biological target: T4, NR6 Wt cells (NR6 cells expressing EGF receptor) (Homo sapiens, UniProt P00533); assay: Native cell binding assay by FMAT, NR6 Wt cells; conditions: for cross-reactivity with wild type EGFR: XenoMax approach, in words
T4 construct: expressed in transfected cells; host or cells: NR6 cells (NR6 Wt)
Text: The same type of native binding assay was done on NR6 Wt cells (NR6 cells expressing EGF receptor) (See Batra et al. Epidermal growth factor ligand-independent, unregulated, cell-transforming potential of a naturally occurring human mutant EGFRvIII gene. Cell Growth Differ. 6(10):1251-9 (1995)) to eliminate the binding is due to binding to Wt receptor (Table 3.8). ABX-EGF was used as a positive control and PK 16.3.1 at the same concentration was used as a negative control antibody. 3 out the 134 NR6 M binders were binding strongly to NR6 Wt cells. 190 of the 244 wells bound EGFRvIII peptide in Elisa were also bound to the native form on cells.
In this example, binding of anti-EGFRvIII antibodies to NR6 M cells was measured. Specifically, unquantitated supernatants of XenoMax derived IgG1 recombinant antibodies were assayed for their ability to bind to NR6 M and NR6 WT cells. Cells were seeded at 10000/well and incubated overnight at 37 C in FMAT 96 well plates. Media was removed and 40 μl mini lipo supernatant (titrated down) was added, the cells were incubated on ice for 1 hr. […] The PK 16.3.1 antibody was used as a negative control. The cells were washed with Cold PBS, secondary antibody was added (SS Alexa antihuman IgG Fc) at 1 μg/ml, 40 μl/well and incubated on ice for 1 hr. The cells were then washed with Cold PBS and fixed and read by FMAT. All antibodies were tested for specificity for binding by counter screening against NR6 WT cells.

OVA = biological target: T5, OVA (Gallus gallus, UniProt P01012); assay: B-cell culture supernatant ELISA on OVA (specificity control); format: binding; conditions: Table 3.8
T5 sequence (P01012 1-386): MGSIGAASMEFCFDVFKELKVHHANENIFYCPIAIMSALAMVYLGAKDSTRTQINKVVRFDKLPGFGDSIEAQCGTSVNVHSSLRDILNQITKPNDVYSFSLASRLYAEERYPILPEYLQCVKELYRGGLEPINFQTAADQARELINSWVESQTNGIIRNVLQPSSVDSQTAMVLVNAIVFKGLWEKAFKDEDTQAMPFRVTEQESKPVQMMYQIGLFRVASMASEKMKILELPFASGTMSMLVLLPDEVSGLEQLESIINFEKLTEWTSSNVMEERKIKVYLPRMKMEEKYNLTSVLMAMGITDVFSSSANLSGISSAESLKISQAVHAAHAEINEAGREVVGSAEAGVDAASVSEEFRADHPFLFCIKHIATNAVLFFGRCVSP
Text: as §1

[4] = biological target: T6, native form of EGFRvIII stably expressed on NR6 cells (NR6 M cells) (Homo sapiens, UniProt P00533, DELINS30-297G); assay: Native cell binding assay by FMAT, NR6 M cells; conditions: total fluorescent intensity
T6 construct: NR6 M cells stably expressing full length EGFRvIII; expressed in transfected cells; host or cells: NR6 cells (NR6 M)
Experimental: EGFRvIII peptide-OVA-Elisa positive well supernatants were analyzed for their ability to bind to the native form of EGFRvIII stably expressed on NR6 cells (NR6 M cells) (See, Batra et al. Epidermal growth factor ligand-independent, unregulated, cell-transforming potential of a naturally occurring human mutant EGFRvIII gene. Cell Growth Differ. 6(10):1251-9 (1995)). NR 6 M cells were seeded at 8000 cells per well and incubated over night in 96 well FMAT plates. Media was then removed leaving 15 μl in the well. 15 μl B-cell culture supernatants were added and 15 μl anti-human IgG Fc Cy5 at 1 μg/ml final concentration added to wells. It is then left incubated at 4° C. for 2 hours. The cells were washed with 150 μl PBS, and fixed before reading on FMAT. The results were expressed as total fluorescent intensity (Table 3.8).

B1: 170: XenoMax derived anti-EGFRvIII antibody, SEQ ID NO: 4/20 (antibody, listed as Homo sapiens, V domains shown)
VH: QVQLQQSGPGLVKPSQTLSLTCAISGDSVSSNNAAWNWIRQSPARGLEWLGRTYYRSKWYNDYVVSVKSRITINPDTSKNQFSLQLNSVTPEDTAVYYCVRATAFDYWGQGTLVTVSS
VL: AIVLTQTPLSSPVTLGQPASISCRSSQSLVHRDGNTYLSWLQQRPGQPPRLLIYKISNRFSGVPDRFSGSGAGTDFTLKISRVEPDDVGVYYCMHTTQLPWTFGQGTKVEIK
- % internalized, (glut+/glut−) × 100 [1]: 52.8%
- With glutathione FL1xcount [1]: 1236
- No glutathione FL1xcount [1]: 2342
- FACS Geometric mean With glutathione 4° C. [2]: 4.67
- FACS Geometric mean With glutathione 37° C. [2]: 7.75

B2: 095: XenoMax derived anti-EGFRvIII antibody, SEQ ID NO: 7/23 (antibody, listed as Homo sapiens, V domains shown)
VH: QVQLQESGPFLVKPSQTLSLTCTVSGGSISSGGYYWSWIRQHPGKGLEWIGFIYYRGNTYYNPSLKSRVTISVDTSKNQFSLKLSSVTAADTAVYYCARDGYCSRTGCYGGWFDPWGQGTLVTVSP
VL: DIVMTQTPLSSPVTLGQPASISCRSSQSLIHTDGNIYLSWLQQRPGQPPRLLIYKISNRFSGVPDRFSGSGAGTDFTLKISRVEAEDVGVYYCMQGTQFPITFGQGTRLEIK
- binding with the pep3 (EGFRvIII-peptide-OVA): highly specific
- cross-reactivity with wild type EGFR [3]: limited cross-reactivity with wild type EGFR
- FACS Geometric mean With glutathione 4° C. [2]: 5.13
- FACS Geometric mean With glutathione 37° C. [2]: 17.75

B3: 150: XenoMax derived anti-EGFRvIII antibody, SEQ ID NO: 5/21 (antibody, listed as Homo sapiens, V domains shown)
VH: QVQLQQSGPGLVKPSQTLSLTCAISGDSVSSYSSAWNWIRQSPSRGLEWLGRAYHRSRWYYEYAVSVKSRINITPDTSKNQFSLQLNSVTPEDTAVYYCARGSRFDYWGQGTLVTVSS
VL: DIVMTQTPLSSPVTLGQPASISCRSSQSLVHRDGNTYLSWLQQRPGQPPRLLIYKISNRFSGVPDRFSGSGAGTDFTLKISRVEAEDVGIYFCMHTTQFPWTFGQGTRVEIK
- FACS Geometric mean With glutathione 4° C. [2]: 4.66
- FACS Geometric mean With glutathione 37° C. [2]: 7.78

B4: 250: XenoMax derived anti-EGFRvIII antibody, SEQ ID NO: 9/26 (antibody, listed as Homo sapiens, V domains shown)
VH: EGQLLESGGGWVQPGESLRLSCAASGFTFSSYAMSWVRQAPGKGLEWVSAISGSGGSTNYADSVKGRFTISRDNSKNTLYLQVNSLRVEDTAVYYCAGSSGWSEYWGQGTLVTVSS
VL: DIQMTQSPSSLSASVGDSVTITCRTSQGIRKNLGWYQQKPGKAPKRLIYAASSLQSGVPSRFSGSGSGTEFTLTISRLQPEDFATYYCLQHHSYPLTFGGGTRVEIR
- binding with the pep3 (EGFRvIII-peptide-OVA): highly specific
- cross-reactivity with wild type EGFR [3]: limited cross-reactivity with wild type EGFR
- FACS Geometric mean With glutathione 4° C. [2]: 4.84
- FACS Geometric mean With glutathione 37° C. [2]: 8.07

B5: 333: XenoMax derived anti-EGFRvIII antibody, SEQ ID NO: 17/32 (antibody, listed as Homo sapiens, V domains shown)
VH: QVQLVESGGGVVQPGRSLRLSCVASGFTLSSYGMHWVRQALGKGLEWVAVTSYDGSKKDYADSVKGRFTISRDNSKNTLYLQMNSLRAEDTAVYYCVSEGYCDSTSCYKYYYYGMDVWGQGTTVTVSS
VL: DIVMTQSPLSLPVTPGEPASISCRSSQSLLYRNGNNYLDWYLQRPGQSPQLLIYLGSNRASGVPDRFSGSGSGTDFTLKISRVEAEDVGVYYCMQALQTPRTFGQGTKVEIK
- 1′ VIII-pep-OVA OD (EGFRvIII-peptide-OVA; Table 3.8): 0.8555
- 2′ VIII-pep-OVA OD (EGFRvIII-peptide-OVA; Table 3.8): 1.2070
- OVA OD (OVA): 0.1649
- FMAT native binding to NR6 M cells [4]: 109379
- FMAT native binding to NR6 Wt cells ([3]; total fluorescent intensity): 0
- % internalized, (glut+/glut−) × 100 [1]: 37.1%
- With glutathione FL1xcount [1]: 13293
- No glutathione FL1xcount [1]: 35820

B6: 211: XenoMax derived anti-EGFRvIII antibody, SEQ ID NO: 12/28 (antibody, listed as Homo sapiens, V domains shown)
VH: QVQLVESGGGVVQPGRSLRLSCVASGFTLSSYGMHWVRQAPGKGLEWVAVTSYDGSKKDYADSAKGRFTISRDNSKNTLYLQMNSLRAEDTAVYYCVSEGYCSSSSCYKYYYYGMDVWGQGTTVTVSS
VL: DIVMTQSPLSLPVTPGEPASISCRSSQSLLYRNGNNYLDWYLQRPGQSPQLLIYLGSNRASGVPDRFSGSGSGTDFTLKISRVEAEDVGVYYCMQALQTPRTFGQGTKVEIK
- FACS Geometric mean With glutathione 4° C. [2]: 4.78
- FACS Geometric mean With glutathione 37° C. [2]: 8.23
